Data as given in the supplement of paper PMC9170038.

Test system: MS2 coat protein
Assay: apparent KD of MS2 coat protein; designed switch direction (-1 OFF switch, 1 ON switch): 1; higher = weaker reporter binding
Summary of the method: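 Normalised cluster fluorescence was curve-fitted, and each design's median over clusters is its apparent KD. Before this, SNAP-549-labelled MS2 coat protein was titrated from 0.7 or 1.5 nM, doubling to 3 µM, over RNA switches transcribed on Illumina chips by stalled E. coli RNA polymerase. Titrations had no input, 200 uM small-molecule ligand, or an oligonucleotide input, and steps lasted 0.8–1.5 h (lowest) to 10–20 min (highest).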

[1] = Eterna round: R95, input ligand: FMN 200 uM
[2] = Eterna round: R95, input ligand: microRNA oligo, concentration not stated
[3] = Eterna round: R95, input ligand: none
[4] = input ligand: microRNA oligo, concentration not stated

| Sequence | apparent KD of MS2 coat protein [1] | apparent KD of MS2 coat protein [2] | apparent KD of MS2 coat protein [3] | apparent KD of MS2 coat protein (input ligand: FMN 200 uM) | apparent KD of MS2 coat protein [4] | apparent KD of MS2 coat protein (input ligand: none) |
| --- | --- | --- | --- | --- | --- | --- |
| GGCUAUCGGCGUACCGAUAGCUGGUAUGUACAUGAGGAUCACCCAUGUCAUGUACAGGCUUUUUGCUCGUCUUAUUG [JL-shm-2.39 JL mod] (puzzle: Sensor for hsa-mir-208a) | 134 nM | 30.3 nM | 149 nM | – | – | – |
| GCCGCACAUGAGGAUCACCCAUGUAAUUACAUGGGAGGAUAUCAGUGCUCGAAAGAGCACUGAGAAGGCCUGAGGC [SS1 - Omei A v1] (puzzle: Same State 1) | 296 nM | 32.2 nM | 28.8 nM | – | – | – |
| ACGUCGAUAUCACAGGAUAUACUCACAUCUACAUGAGGAUCACCCAUGUAGCGGUAUUCCGGUGCGUAGAAGGGUGAUGGACGAC [Same State 2 - Mod of Artece v.4] (puzzle: Same State 2) | 14.4 nM | 12.4 nM | 12.2 nM | – | – | – |
| GUAUCUACAGGUUGCGAUGCUCGUCUGAUACAUGAGGAUCACCCAUGUUAUAGCCCUGUGCUUGCGCAGGGCUGAUU [Sensor for hsa-mir-208a ( MOD of Tearor v.2 )] (Eterna round: R96, puzzle: Sensor for hsa-mir-208a) | – | – | – | 105 nM | 26.7 nM | 84.6 nM |
| GUAGCAUGCAGGCAGGAUAUUCAUAUUAAAACAUGAGGAUCACCCAUGUAGGCCGAAAGGCCUUGGGAGAAGGGCCACAUGCUAC [Xeonanis - 18] (puzzle: Same State 2) | 34.3 nM | 453 nM | 1020 nM | – | – | – |
| GUGGUCAGACAUGAGGAUCACCCAUGUGGAAUAAAUAACACACAGGAUAUCCAAUAUAAAAUAUAGGAGAAGGGUGGAUUGGUG (Eterna round: R96, puzzle: Same State NG 3) | – | – | – | – | 176 nM | – |
| GUACUACAUGAGGAUCACCCAUGUACAAAUGUACGAGGAUAUGCAUGGACGAAAGUUGGUGCAGAAGGCGUAGUAC [Pin2Pin #4] (puzzle: Same State 1) | – | 27.1 nM | – | – | – | – |
| AACAAUCUAUCUGAGGAUAUCAUGAAUUAAACAUGAGGAUCACCCAUGUGCAGGAAAACUGCAUAUGAGAAGGCAGAUAGAUUGA [salish99_ss2_r3_032] (puzzle: Same State 2) | 40.2 nM | 707 nM | 58.7 nM | – | – | – |
| AGAGAACAUGAGGAUCACCCAUGUGGGAGAUGCAUAGGAUAUAGGAGAGAGAGCGAGGAACUAGAAGGAUGAUGGA [JR_SS1_Sub081] (puzzle: Same State 1) | 79.7 nM | 63.7 nM | 191 nM | – | – | – |
| AAGAUGCUCGUAGGAUAUUGGAAAGGAAGUGUACAAGAAGGACGGUGUCACAUGAGGAUCACCCAUGUUACAGUCUAAGGACUA [PowerStrip SSNG 1.16] (Eterna round: R96, puzzle: Same State NG 1) | – | – | – | 21.5 nM | 13.2 nM | 20.3 nM |
| GAGUGGUAAAGAGGAUAUGCAUUGUUAUUCACUGUAGAAGGUUUUAACAUGAGGAUCACCCAUGUAGGACUAUUCCUGUGUUUC [Parity 63 - Jieux - Same State NG 1] (Eterna round: R96, puzzle: Same State NG 1) | – | – | – | 14.4 nM | 11.8 nM | 17.3 nM |
| GAUUCACAUGAGGAUCACCCAUGUCGUUAUAUGGGAGGAUAUACGUGGACCGUAGUCCGCGUAGAAGGCCUAAUUG [JL-ss1-3.25 janelle mod] (puzzle: Same State 1) | – | 303 nM | – | – | – | – |
| GUUACAUGAGGAUCACCCAUGUAUGUGUGGGAGUAAGUGUCUUAGGAUAUCUAUCAUUUAAUUGAAGAGAAGGAAGAUUGUUGU [JMF's solution 99] (Eterna round: R96, puzzle: Same State NG 3) | – | – | – | 140 nM | 71.2 nM | 113 nM |
| GGUCCGGCCUGAGCUGGACCGAAGCAUGUACAUGAGGAUCACCCAUGUCAUGUACAGGCUUUUUGCUCGUCUUGUUG [JL-shm-2.14 JL Mod] (puzzle: Sensor for hsa-mir-208a) | 691 nM | 17.2 nM | 746 nM | – | – | – |
| GCUAGAAUAAAUGCUAACAUGAGGAUCACCCAUGUAUGUUGGCAGGAUAUCGUUUGCAAAGCAAACGAGAAGGGCCAUACUAGC [Mat - Same State NG 3 - JL Mod - D26] (Eterna round: R96, puzzle: Same State NG 3) | – | – | – | 23.1 nM | 26.3 nM | 38.1 nM |
| UGCAUACAUGAGGAUCACCCAUGUCAACUUAGUCGAGGAUAUGGGCAGCCCUGAGGCGAACCAGAAGGCGAAUUGU [JL-ss1-3.01 ViennaUCT mod] (puzzle: Same State 1) | – | 94.5 nM | – | – | – | – |

| Sequence | apparent KD of MS2 coat protein [1] | apparent KD of MS2 coat protein [2] | apparent KD of MS2 coat protein [3] | apparent KD of MS2 coat protein (input ligand: FMN 200 uM) | apparent KD of MS2 coat protein [4] | apparent KD of MS2 coat protein (input ligand: none) |
| --- | --- | --- | --- | --- | --- | --- |
| UGUUGUAUUACAGGAUAUCUAGCAUUUUUAUUUAGAGAAGGGUAUUCACAUGAGGAUCACCCAUGUAUAUACGAGGAAGUUGUG [JMF's solution 32] (Eterna round: R96, puzzle: Same State NG 1) | – | – | – | 54.9 nM | 42.1 nM | 51.9 nM |
| GUGGUGAAUUAAGGAUAUCGAGUCUAGAUGUUAAACAUGAGGAUCACCCAUGUGGGUUGCGGUGUCGAGAAGGUGAUUUACGGG [salish99_SSNG2_r04_509] (Eterna round: R96, puzzle: Same State NG 2) | – | – | – | 82.2 nM | 79.6 nM | 104 nM |
| CGGGUGGUUCUAGGAUAUCUAGGAUAUGGACGAGGAUUACCCGAGCAGCAUCAGCGCACCAGAGGAGAGAAGGAGAGUCAUGCG [pwkr ssNG2 2F5 2FMN.9] (Eterna round: R96, puzzle: Same State NG 2) | – | – | – | 105 nM | 72.5 nM | 86.8 nM |
| AAUUAAGAUUGAGGAUAUCACGUCGAUUAGACGUGAGAAGGCGAUCAUAACAUGAGGAUCACCCAUGUAUUACAUGAAUUAAUU [SSNG1/5-B2] (Eterna round: R96, puzzle: Same State NG 1) | – | – | – | 31.9 nM | 26.2 nM | 36.6 nM |
| AUUAAUUAAUUAAUACAUGAGGAUCACCCAUGUAAUAAGAUCAAGGAUAUCAGCUCGAAUAGAGCUGAGAAGGUGAUCACAUGU [SSNG3/17-B1] (Eterna round: R96, puzzle: Same State NG 3) | – | – | – | – | 337 nM | – |
| GCGGAGAGGUAAGGAUAUUCAUGGCAUAGACAUGAGGAUCACCCAUGUAGGAGACGAAUUAGAAGGAAGAAGGUACCGGGACGC [AK SSNG2-V2-18.1] (Eterna round: R96, puzzle: Same State NG 2) | – | – | – | 158 nM | 113 nM | 197 nM |
| UUAAUGAAGUAAGGAUAUACAUGAGGAUCACUCGUAGAAGGUACUAUACAUGAGGAUCACCCAUGUUCCGGUCCGUAGACUGGA [JL SSNG1 1.02] (Eterna round: R96, puzzle: Same State NG 1) | – | – | – | 1600 nM | 236 nM | 841 nM |
| AGUCCAGCCUGAGCUGGACAAAAGCAUGUACAUGAGGAUCACCCAUGUUUAUGUACAAGCUUUUUGCUCGUCUUAAA [Zipper 52 - 12] (puzzle: Sensor for hsa-mir-208a) | 257 nM | 16.2 nM | 313 nM | – | – | – |
| UUAAUUUACUGAGGAUAUCGUGUCGACUGAGGUGACAUGAGGAUCACCCAUGUGAGAAGUGGUAUCGAGAAGGCAGUAUUCAUA [JR_SSNG2_Sub022] (Eterna round: R96, puzzle: Same State NG 2) | – | – | – | 92.6 nM | 306 nM | 506 nM |
| GUAUCUACAGGUUGCGAUGCUCGUCUGAUACAUGAGGAUCACCCAUGUUAUAGCCCUGUGCUUGCGCAGGGCUGAUU [Sensor for hsa-mir-208a ( MOD of Tearor v.2 )] (puzzle: Sensor for hsa-mir-208a) | 136 nM | 33.4 nM | 116 nM | – | – | – |
| AGUCCUGAAUAAAUUAAACAGAGACAUGUACAUGAGGAUCACCCAUGUCAUGUGCAAGUUUUUUGCUCGUCAUAUAA [Sensorship 17 - Jieux - Sensor for hsa-mir-208a] (puzzle: Sensor for hsa-mir-208a) | 13.7 nM | 10.7 nM | 14.9 nM | – | – | – |
| UCUUGGUUUUUGCUCGUUUUUUGUGUUGAACAUGAGGAUCACCCAUGUAUUGUACGGUCCAAUUUGGUAAUGGUCCG [JMF 29] (puzzle: Sensor for hsa-mir-208a) | 25.2 nM | 15.6 nM | 26.8 nM | – | – | – |
| GCUCGCACGAUGACCCACAUGAGGAUCACCCAUGUGCUUGGGCAGGAUAUCUAGAUUAAGGAUGUAGAGAAGGGUCGAGCGAGC [SameState NG3 #28] (Eterna round: R96, puzzle: Same State NG 3) | – | – | – | 303 nM | 69.6 nM | 243 nM |
| GGUAGGUUACUACCAGACAUGAGGAUCACCCAUGUAAAUGGGAAGGAUAUGGUACCGUUUCGGUACCAGAAGGUCCUAAGUGAG [JL SSNG3 1.48] (Eterna round: R96, puzzle: Same State NG 3) | – | – | – | 667 nM | 367 nM | 2280 nM |
| GAGAGAGGGCGAGGAUAUUCGGUGAUAAUGAUGGGAGAAGGCGCAGACAUGAGGAUCACCCAUGUGGGAAUAAUCCAGAGAGAG [Parity 13 - Jieux - Same State NG 1] (Eterna round: R96, puzzle: Same State NG 1) | – | – | – | 151 nM | 111 nM | 185 nM |
